# Measured values reported in IntAct's records for PubMed 17675380.
# B1: Enterobactin synthase component B (Escherichia coli (strain K12)), P0ADI4 (parent)
# chain: MAIPKLQAYALPESHDIPQNKVDWAFEPQRAALLIHDMQDYFVSFWGENCPMMEQVIANIAALRDYCKQHNIPVYYTAQPKEQSDEDRALLNDMWGPGLTRSPEQQKVVDRLTPDADDTVLVKWRYSAFHRSPLEQMLKESGRNQLIITGVYAHIGCMTTATDAFMRDIKPFMVADALADFSRDEHLMSLKYVAGRSGRVVMTEELLPAPIPASKAALREVILPLLDESDEPFDDDNLIDYGLDSVRMMALAARWRKVHGDIDFVMLAKNPTIDAWWKLLSREVK
# partner: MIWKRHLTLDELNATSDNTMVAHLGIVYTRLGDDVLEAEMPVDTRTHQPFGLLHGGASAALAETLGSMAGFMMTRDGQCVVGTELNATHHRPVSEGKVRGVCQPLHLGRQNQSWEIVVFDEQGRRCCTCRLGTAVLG
# Variants of: B1
# Settings: with enth_ecoli entH
row,Variant,effect of a mutation on the interaction
1,S245A,decreasing interaction strength
